Measurements from paper PMC10816986, “The Role of Key Amino Acids of the Human Fe(II)/2OG-Dependent Dioxygenase ALKBH3 in Structural Dynamics and Repair Activity toward Methylated DNA” (International Journal of Molecular Sciences, 2024).
Substitutions are numbered along the chain they refer to. Names may count otherwise. Each block holds one molecule with its values, some of them ahead of it.

What was measured:
[1] = Equilibrium fluorescence titration with 2OG; format: binding; details: 1 µM apoprotein, 25 °C, read-out: Dissociation constant Kd, 2OG
Description: (§1) To investigate the impact of selected mutations on ALKBH3’s ability to bind its cofactor, co-substrate, and methylated DNA, the fluorescent titration method was employed. It is well-established that enzyme–ligand binding typically leads to a protein conformational change, which in turn can alter the fluorescence intensity of tryptophan and tyrosine residues within the protein sequence. […] In this study, transitional metals (Fe(II), Ni(II), and Co(II)), 2OG, and the m3C substrate served as titrants. Protein fluorescence quenching was measured after the addition of an excess of the ligand to 1 µM of enzyme (Supplementary Figure S2). To determine the equilibrium dissociation constant’s Kd values, the resulting titration curves were analyzed using a non-linear regression algorithm (see Section 4.3 of “Materials and Methods” for details). […] As indicated by the data presented in Table 2, the stability of the wt ALKBH3 apoenzyme’s affinity to various ligands and damaged DNA generally corresponds to the stability of such complexes for AlkB and ALKBH2 enzymes. […] The binding of Ni(II) and Co(II) ions of similar radii was weakened by approximately two-fold. […] This behavior is more characteristic of the bacterial homolog AlkB rather than human ALKBH2 [7].
(§2) The intrinsic tryptophan fluorescence quenching was monitored at the maximum of emission (345 nm, in most cases) using an excitation wavelength of 280 nm, and 5 nm slits. An amount of 2 mM of (NH4)2Fe(SO4)2·6H2O, 2 mM of NiSO4×7H2O, 2 mM of CoSO4·7H2O, 2 mM of 2OG, or 100 µM of m3C substrate was titrated into 1 µM of apoprotein (a free enzyme with no metal or 2OG added) in the presence of 50 mM of HEPES-KOH (pH 7.8), 50 mM of KCl, and 10 mM of MgCl2. When titrating with DNA, the buffer was supplemented with 2 mM of EDTA. The dissociation constant Kd for a model of one-step binding (E + L ↔ EL) was determined using Equations (2)–(5) and a non-linear regression algorithm in the OriginPro 8.1 software (OriginLab Corp., Northampton, MA, USA):(2) Kd=E[L]/[EL] (3) F=f0+f1E+f2[EL] (4) e0=E+[EL] (5) l0=L+[EL] where F is the observed fluorescence intensity at any given ligand (L) concentration; f0 is the background fluorescence; f1 and f2 are partial fluorescence intensities of the free enzyme (E) and enzyme–ligand complex (EL), respectively; e0 and l0 are total concentrations of the enzyme and ligand.
(§3) Figure S2. Equilibrium binding of the wild-type and mutant ALKBH3 proteins to transition metals, 2OG, or m3C-containing DNA. The quenching of the enzyme ﬂuorescence is shown as a function of Fe(II) (A), Ni(II) (B), Co(II) (C), 2OG ( D), and single-stranded m3C substrate (E). The protein concentration was 1 µM. In the course of titration by Fe(II), a sodium ascorbate (1mM) was added to keep the metal in a reduced state. Experimental data points were ﬁtted to a single-site binding mode l (see “Materials and Methods”). Each trace represents the average of three technical […]
(§4) (1 picture or pasted object on this page, not shown here)

[2] = Equilibrium fluorescence titration with Ni(II); format: binding; details: 1 µM apoprotein, 25 °C; read-out: Dissociation constant Kd, Ni(II)
Description: as §1, §2, §3, §4

[3] = Far-UV CD spectroscopy, secondary structure content (BeStSel); format: physicochemical
Method: To assess the effect of key amino acid substitution on the ALKBH3’s secondary structure content circular CD spectra of each protein variant in the apo state were recorded in accordance with experimental conditions optimized in our previous study.
The secondary structure content was determined by processing experimental spectra using the […] (BeStSel, Budapest, Hungary) and CDSSTR (DichroWeb, London, UK) algorithms. […] A detailed description of the parameter optimization process for each algorithm is provided in our recent work. The BeStSel package was selected for further analysis as it provides more information regarding the structural organization of the protein. As follows from data summarized in Table 3, antiparallel β-strands predominate in the structure of the wild-type ALKBH3 (37.6%), with a considerable portion existing in right-twisted and relaxed conformations. The protein sequence also contains a significant number of loop motifs (12.6%) and poorly ordered structures (~44.7%), which may constitute the N-terminal domain. Only 5.2% of the amino acid sequence is composed of α-helices. Utilizing the protein architecture and topology prediction feature available in BeStSel, it was established that the obtained CD spectrum belongs (with a probability of 96%) to the class of β-proteins with a sandwich or β-barrel architecture. Such a distribution corresponds to the structure of ALKBH3 determined by X-ray crystallography for a truncated form of the enzyme lacking 69 amino acids from the N-terminus (PDB 2IUW). Specifically, the β7-β14 strands form two antiparallel sheets of a central “jellyroll” fold, which constitutes the catalytically active DSBH domain (Figure 1). Thus, the CD method we selected enabled us to determine the composition of the secondary structure of ALKBH3 with a high degree of precision.
Far-UV CD spectra from 185 to 280 nm were recorded using a J600 spectrometer (Jasco, Tokyo, Japan) in a 0.1 cm path lengths quartz cuvette (Starna Cells, CA, USA). In all cases, the protein sample (~50 nmol) was dialyzed two times against the CD buffer containing 10 mM of Potassium Phosphate (pH 7.8) and 50 mM of (NH4)2SO4. […] Data were corrected for a baseline by subtraction of the buffer spectrum and expressed as mean residue ellipticity [θ] […] To estimate the secondary structures, each spectrum between […] and 250 nm was analyzed by both the DichroWeb and BeStSel online programs using the CDSSTR method.
Figure 5 Far-UV CD spectra of wt (blue), Y143F (yellow), Y143A (green), L177A (red), and H191A (purple) ALKBH3 collected from 0.2 mg/mL protein at 11 °C in the absence of ligands. Each spectrum was measured three times, corrected for background, averaged, and expressed as mean residue ellipticity θ (deg·cm^2·dmol^−1).

[4] = Equilibrium fluorescence titration with Co(II); format: binding; details: 1 µM apoprotein, 25 °C; read-out: Dissociation constant Kd, Co(II)
Description: as §1, §2, §3, §4

[5] = Equilibrium fluorescence titration with Fe(II); format: binding; details: 1 µM apoprotein, 25 °C; read-out: Dissociation constant Kd, Fe(II)
Description: as §1, §2, §3, §4

Kd ([1]; listed as wt): 52 ± 7 µM
Kd [1]: ~50 µM
Kd [2]: 42 ± 4 µM
Kd [4]: 52 ± 4 µM
Kd [5]: 25 ± 2 µM
B1: wt ALKBH3: wild-type human Fe(II)/2OG-dependent dioxygenase ALKBH3 with N-terminal His-tag, expressed in E. coli (protein, UniProt Q96Q83 1-286, looked up)
Alpha-ketoglutarate-dependent …: MEEKRRRARVQGAWAAPVKSQAIAQPATTAKSHLHQKPGQTWKNKEHHLSDREFVFKEPQQVVRRAPEPRVIDREGVYEISLSPTGVSRVCLYPGFVDVKEADWILEQLCQDVPWKQRTGIREDITYQQPRLTAWYGELPYTYSRITMEPNPHWHPVLRTLKNRIEENTGHTFNSLLCNLYRNEKDSVDWHSDDEPSLGRCPIIASLSFGATRTFEMRKKPPPEENGDYTYVERVKIPLDHGTLLIMEGATQADWQHRVPKEYHSREPRVNLTFRTVYPDPRGAPW
modifications: N-terminal His-tag
notes: wild-type human Fe(II)/2OG-dependent dioxygenase ALKBH3 with N-terminal His-tag, expressed in E. coli
α-helices, total ([3]; sum of Table 3 components): 5.2%

Kd [1]: 67 ± 8 µM
Kd [2]: 90 ± 10 µM
Kd [4]: 98 ± 9 µM
Kd [5]: 24 ± 2 µM
B2: L177A ALKBH3: ALKBH3 mutant, Leu177 replaced with Ala (protein, UniProt Q96Q83 1-286, looked up, variant L177A)
Alpha-ketoglutarate-dependent …: B1 Alpha-ketoglutarate-dependent … with L177A
increase in α-helical content over wt ALKBH3 [3]: 2.7 fold

Kd [1]: 52 ± 4 µM
Kd [2]: 42 ± 3 µM
Kd [4]: 40 ± 3 µM
Kd [5]: 23 ± 2 µM
B3: Y143F ALKBH3: ALKBH3 mutant, Tyr143 replaced with Phe (protein, UniProt Q96Q83 1-286, looked up, variant Y143F)
Alpha-ketoglutarate-dependent …: B1 Alpha-ketoglutarate-dependent … with Y143F

Kd [1]: 34 ± 2 µM
Kd [2]: 50 ± 4 µM
Kd [4]: 59 ± 6 µM
Kd [5]: 20 ± 2 µM
B4: H191A ALKBH3: ALKBH3 mutant, His191 replaced with Ala (protein, UniProt Q96Q83 1-286, looked up, variant H191A)
Alpha-ketoglutarate-dependent …: B1 Alpha-ketoglutarate-dependent … with H191A
increase in α-helical content over wt ALKBH3 [3]: up to 3.1 fold

Kd [1]: 53 ± 10 µM
Kd [2]: 60 ± 7 µM
Kd [4]: 44 ± 4 µM
Kd [5]: 25 ± 3 µM
B5: Y143A ALKBH3: ALKBH3 mutant, Tyr143 replaced with Ala (protein, UniProt Q96Q83 1-286, looked up, variant Y143A)
Alpha-ketoglutarate-dependent …: B1 Alpha-ketoglutarate-dependent … with Y143A
increase in α-helical content over wt ALKBH3 [3]: 3 fold
